Results from patent US20190135872A1.

What was measured:
[1] = target: 16055 NFL-TD+CC2-D4K_I559P (HIV-1 16055 (clade C)); experiment: BLI, IgG captured, trimer as analyte
[2] = target: 16055 NFL-Q563P (HIV-1 16055 (clade C)); experiment: BLI, IgG captured, trimer as analyte
[3] = target: BG505 NFL-TD+CC2-D4K_L555P (HIV-1 BG505 (clade A)); experiment: BLI, IgG captured, trimer as analyte
[4] = target: BG505 NFL-S553P (HIV-1 BG505 (clade A)); experiment: BLI, IgG captured, trimer as analyte
[5] = target: 16055 NFL-L555P (HIV-1 16055 (clade C)); experiment: BLI, IgG captured, trimer as analyte
[6] = target: 16055 NFL-Q562P (HIV-1 16055 (clade C)); experiment: BLI, IgG captured, trimer as analyte
[7] = target: BG505 NFL-Q562P (HIV-1 BG505 (clade A)); experiment: BLI, IgG captured, trimer as analyte
[8] = target: BG505 NFL-TD+CC2-D4K_I559P (HIV-1 BG505 (clade A)); experiment: BLI, IgG captured, trimer as analyte
[9] = target: 16055 NFL-TD+CC2-D4K_L555P (HIV-1 16055 (clade C)); experiment: BLI, IgG captured, trimer as analyte
[10] = target: BG505 NFL-N554P (HIV-1 BG505 (clade A)); experiment: BLI, IgG captured, trimer as analyte
[11] = target: BG505 NFL-L555P (HIV-1 BG505 (clade A)); experiment: BLI, IgG captured, trimer as analyte
[12] = target: 16055 NFL-CC2 (HIV-1 16055 (clade C)); experiment: BLI, IgG captured, trimer as analyte
[13] = target: BG505 NFL-CC2 (HIV-1 BG505 (clade A)); experiment: BLI, IgG captured, trimer as analyte
[14] = target: BG505 NFL-Q563P (HIV-1 BG505 (clade A)); experiment: BLI, IgG captured, trimer as analyte
[15] = target: BG505 NFL (I559P) parental (HIV-1 BG505 (clade A)); experiment: BLI, IgG captured, trimer as analyte
[16] = target: 16055 NFL-TD+CC2-D4K_I559P (HIV-1 16055 (clade C)); experiment: ELISA, His-captured trimer
[17] = target: 16055 NFL-Q563P (HIV-1 16055 (clade C)); experiment: ELISA, His-captured trimer
[18] = target: BG505 NFL-TD+CC2-D4K_I559P w/rEK (HIV-1 BG505 (clade A)); experiment: ELISA, His-captured trimer
[19] = target: BG505 NFL-TD+CC2-D4K_L555P (HIV-1 BG505 (clade A)); experiment: ELISA, His-captured trimer
[20] = target: BG505 NFL-TD+CC2-D4K_L555P w/rEK (HIV-1 BG505 (clade A)); experiment: ELISA, His-captured trimer
[21] = target: JRFL NFL-CC2 (HIV-1 JRFL (clade B)); experiment: ELISA, His-captured trimer
[22] = target: 16055 NFL-TD+CC2-D4K_L555P w/rEK (HIV-1 16055 (clade C)); experiment: ELISA, His-captured trimer
[23] = target: 16055 NFL-L555P (HIV-1 16055 (clade C)); experiment: ELISA, His-captured trimer
[24] = target: BG505 NFL-TD+CC2-D4K_I559P (HIV-1 BG505 (clade A)); experiment: ELISA, His-captured trimer
[25] = target: 16055 NFL-TD+CC2-D4K_L555P (HIV-1 16055 (clade C)); experiment: ELISA, His-captured trimer
[26] = target: 16055 NFL-TD+CC2-D4K_I559P w/rEK (HIV-1 16055 (clade C)); experiment: ELISA, His-captured trimer
[27] = target: BG505 NFL-L555P (HIV-1 BG505 (clade A)); experiment: ELISA, His-captured trimer
[28] = target: 16055 NFL-CC2 (HIV-1 16055 (clade C)); experiment: ELISA, His-captured trimer
[29] = target: BG505 NFL-CC2 (HIV-1 BG505 (clade A)); experiment: ELISA, His-captured trimer
[30] = target: BG505 NFL (I559P) parental (HIV-1 BG505 (clade A)); experiment: ELISA, His-captured trimer

PGDM1400 (antibody)
Kd [1]: 21 nM
koff [1]: 0.0021 s⁻¹
kon [1]: 98000 M⁻¹ s⁻¹
Kd [2]: 1.3 nM
koff [2]: 0.0004 s⁻¹
kon [2]: 300000 M⁻¹ s⁻¹
Kd [3]: 23 nM
koff [3]: 0.002 s⁻¹
kon [3]: 88000 M⁻¹ s⁻¹
Kd [4]: 11 nM
Kd [5]: 2.3 nM
koff [5]: 0.0004 s⁻¹
kon [5]: 200000 M⁻¹ s⁻¹
Kd [6]: 1.4 nM
koff [6]: 0.0003 s⁻¹
kon [6]: 230000 M⁻¹ s⁻¹
Kd [7]: 13 nM
Kd [8]: 18 nM
koff [8]: 0.0016 s⁻¹
kon [8]: 88000 M⁻¹ s⁻¹
Kd [9]: 13 nM
koff [9]: 0.0016 s⁻¹
kon [9]: 120000 M⁻¹ s⁻¹
Kd [10]: 2.5 nM
Kd [11]: 5.1 nM
Kd [12]: 14 nM
koff [12]: 0.0016 s⁻¹
kon [12]: 110000 M⁻¹ s⁻¹
Kd [13]: 24 nM
koff [13]: 0.0018 s⁻¹
kon [13]: 76000 M⁻¹ s⁻¹
Kd [14]: 5 nM
Kd [15]: 11 nM
EC50 [16]: 0.025 µg/mL
EC50 [17]: 0.016 µg/mL
EC50 [18]: 0.038 µg/mL
EC50 [19]: 0.042 µg/mL
EC50 [20]: 0.04 µg/mL
EC50 [21]: 0.2 µg/mL
EC50 [22]: 0.025 µg/mL
EC50 [23]: 0.019 µg/mL
EC50 [24]: 0.038 µg/mL
EC50 [25]: 0.021 µg/mL
EC50 [26]: 0.03 µg/mL
EC50 [27]: 0.02 µg/mL
EC50 [28]: 0.018 µg/mL
EC50 [29]: 0.018 µg/mL
EC50 [30]: 0.039 µg/mL

PGT128 (antibody)
EC50 [16]: 0.055 µg/mL
EC50 [17]: 0.068 µg/mL
EC50 [18]: 0.036 µg/mL
EC50 [19]: 0.041 µg/mL
EC50 [20]: 0.037 µg/mL
EC50 [21]: 0.04 µg/mL
EC50 [22]: 0.071 µg/mL
EC50 [23]: 0.056 µg/mL
EC50 [24]: 0.036 µg/mL
EC50 [25]: 0.05 µg/mL
EC50 [26]: 0.08 µg/mL
EC50 [27]: 0.021 µg/mL
EC50 [28]: 0.135 µg/mL
EC50 [29]: 0.035 µg/mL
EC50 [30]: 0.039 µg/mL
